{
  "source": "patent US20230022970A1",
  "about": "“USE OF GLIAL CELL LINE-DERIVED NEUROTROPHIC FACTOR (GDNF) FOR THE TREATMENT OF ENTERIC NEUROPATHIES” (TRANSFERT PLUS, société en commandite, priority 2019, published 2023)",
  "key": {"[1]": {"tested_on": "Hol^Tg/Tg mice (model for Trisomy 21 [Collagen VI]-associated HSCR)", "test": "GDNF enema treatment, survival of Hol^Tg/Tg pups", "assay_type": "in vivo, mouse", "conditions": "10 μg in 10 μl PBS enema once daily P4-P8, Hol^Tg/Tg mice", "experimental": "(§1) For all enema treatments, mutant mouse pups were identified at P3 via pigmentation-based genotyping. Unless specified otherwise (see FIG. 1), 10 μl enemas consisting of a 1 μg/μl solution of recombinant human mature GDNF (Peprotech cat. #450-10) diluted in PBS were administered daily between P4 to P8. […] Other tested molecules (1 μg/μl solution in 10 μl enemas) included the serotonin receptor (5-HT4R) agonist RS67506 (R&D Systems, Cat. #0990), Noggin (Sigma, Cat. # SRP4675), endothelin-3 (Sigma, Cat. # E9137), serotonin (Sigma, Cat. # H9523), and L-ascorbic acid (Sigma, Cat. # A4403). Enemas were administered using a 24-gauge gavage needle (Fine Science Tools, Canada) attached to a micropipette. The head of the gavage needle was introduced in the rectum just beyond the anus (pre-lubricated with Vaseline™), and enemas were injected over the course of a few seconds. Pups were then placed back with their mother, and either sacrificed at P20 for tissue analysis or checked daily to track survival.\nIt was first tested if GDNF enemas in young mice could enhance enteric neuron numbers and restore function in distal aganglionic bowel using three mouse models of short-segment HSCR. Selected lines were Holstein (Hol^Tg/Tg; a model for Trisomy 21 [Collagen VI]-associated HSCR) (39), TashT (TashT^Tg/Tg; a model for male-biased HSCR) (40), and Piebald-lethal (Ednrb^S-l/s-l; a model for EDNRB mutation-associated HSCR) (41). The enema volume necessary to fill whole colon, concentration of GDNF homodimer (30 kDa), treatment time window, as well as duration and frequency of therapy were first determined with Hol^Tg/Tg pups (FIGS. 1A-D). […] Remarkably, the selected treatment (i.e. daily administration of 10 μg GDNF in PBS as 10 μl enemas for 5 consecutive days between postnatal day [P]4 to P8) prevented death by megacolon in about half of Hol^Tg/Tg mice at P28, the maximum age of survival for control Hol^Tg/Tg mice (FIG. 2A). Most animals surviving to P28 reached adult age after GDNF treatment and mice evaluated could reproduce (two tested breeding pairs were fertile). […]"}, "Hol^Tg/Tg mice": {"tested_on": "Hol^Tg/Tg mice", "test": "Time-course immunofluorescence of HisGDNF distribution and RET expression in distal colon", "assay_type": "in vivo, mouse", "experimental": "as §1\nTissue labelling and imaging. […] EdU was detected using the Invitrogen Click-iT EdU Imaging Kit (ThermoFisher Scientific, Cat. # C10337) in accordance with the manufacturer's instructions. […]"}},
  "note": "Where no end group is shown, it is not given here.",
  "data": [
    {"molecule": "COc1cc(N)c(Cl)cc1C(=O)CCC1CCN(CCNS(C)(=O)=O)CC1", "note": "[RS67506]", "values": [
      {"measurement": "life expectancy", "setting": "[1]", "value": "failed to increase life expectancy"}
    ]},
    {"molecule": "endothelin-3 (CTCFTYKDKECVYYCHLDIIW; ends and bridges not checked; cysteine pairing not given here; UniProt P14138 97-117, looked up) [endothelin-3 monomer (26 kDa), Sigma Cat. # E9137, tested neurotrophic molecule]", "values": [
      {"measurement": "life expectancy", "setting": "[1]", "value": "failed to increase life expectancy"}
    ]},
    {"molecule": "Noggin: Noggin homodimer (46 kDa), Sigma Cat. # SRP4675, tested neurotrophic molecule (protein, UniProt Q13253 28-232, looked up) Noggin: QHYLHIRPAPSDNLPLVDLIEHPDPIFDPKEKDLNETLLRSLLGGHYDPGFMATSPPEDRPGGGGGAAGGAEDLAELDQLLRQRPSGAMPSEIKGLEFSEGLAQGKKQRLSKKLRRKLQMWLWSQTFCPVLYAWNDLGSRFWPRYVKVGSCFSKRSCSVPEGMVCKPSKSVHLTVLRWRCQRRGGQRCGWIPIQYPIISECKCSC", "values": [
      {"measurement": "life expectancy", "setting": "[1]", "value": "failed to increase life expectancy"}
    ]},
    {"molecule": "HisGDNF: 6×His-tagged version of GDNF used for enema treatments (protein, UniProt P39905 78-211, looked up, 6xHis tag, 6×His-tagged version of GDNF used for enema treatments) Glial cell line-derived …: SPDKQMAVLPRRERNRQAAAANPENSRGKGRRGQRGKNRGCVLTAIHLNVTDLGLGYETKEELIFRYCSGSCDAAETTYDKILKNLSRNRRLVSDKVGQACCRPIAFDDDLSFLDDNLVYHILRKHSAKRCGCI", "values": [
      {"measurement": "distribution in colon submucosa, smooth muscles and subsets of enteric neurons", "setting": "Hol^Tg/Tg mice; distal colon 2 h after treatment on P4, P6 and P8, Hol^Tg/Tg", "value": "accumulated over time"},
      {"measurement": "levels of the main GDNF receptor RET", "setting": "Hol^Tg/Tg mice; distal colon, P4-P8 treatment, Hol^Tg/Tg", "value": "increased"}
    ]}
  ]
}
